T1: PHA.L, lectin from Phaseolus vulgaris (Phaseolus vulgaris, UniProt P05087 21-272)
T1 construct: Lectin coated on the plate
T1 sequence (looked up): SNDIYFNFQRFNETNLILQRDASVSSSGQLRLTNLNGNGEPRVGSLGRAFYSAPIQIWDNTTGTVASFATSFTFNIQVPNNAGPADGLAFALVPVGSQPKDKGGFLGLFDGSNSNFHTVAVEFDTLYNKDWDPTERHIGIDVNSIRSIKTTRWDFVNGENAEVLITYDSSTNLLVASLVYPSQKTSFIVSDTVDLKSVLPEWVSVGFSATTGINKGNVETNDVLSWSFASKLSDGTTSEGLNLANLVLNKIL

T2: UEA.I, lectin from Ulex europeus (Ulex europeus, UniProt P22972 1-243)
T2 construct: Lectin coated on the plate
T2 sequence (looked up): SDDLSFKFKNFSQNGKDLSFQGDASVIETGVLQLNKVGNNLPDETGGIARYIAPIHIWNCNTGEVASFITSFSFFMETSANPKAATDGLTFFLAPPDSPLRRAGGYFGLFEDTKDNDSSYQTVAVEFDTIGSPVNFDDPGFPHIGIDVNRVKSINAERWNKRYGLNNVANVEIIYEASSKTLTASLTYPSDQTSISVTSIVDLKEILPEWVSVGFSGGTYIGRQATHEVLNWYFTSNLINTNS

B1: purified CHO-derived recombinant human IL-7 (highly glycosylated / hyperglycosylated hIL-7) (ligand)
chain: DCDIEGKDGKQYESVLMVSIDQLLDSMKEIGSNCLNNEFNFFKRHICDANKEGMFLFRAARKLRQFLKMNSTGDFDLHLLKVSEGTTILLNCTGQVKGRKPAALGEAQPTKSLEENKSLKEQKKLNDLCFLKRLLQEIKTCWNKILMGTKEH
modifications: complex N-linked oligosaccharides at Asn 70, 91 and 116; O-glycan at Thr 110; batch is a mixture of fully and partially glycosylated proteins
notes: also called CHO-derived hIL-7; purified IL-7 protein
B2: ABA, lectin from Agaricus bisporus (other, UniProt Q00022 2-143, looked up)
chain: TYTISIRVYQTTPKGFFRPVERTNWKYANGGTWDEVRGEYVLTMGGSGTSGSLRFVSSDTDESFVATFGVHNYKRWCDIVTNLTNEQTALVINQEYYGVPIRDQARENQLTSYNVANAKGRRFAIEYTVTEGDNLKANLIIG
notes: Lectin coated on the plate

Legend:
Experiment in all cases: lectin-coated plate ELISA; bound IL-7 shown by biotinylated anti-hIL-7 antibody and streptavidin-peroxidase
[1] = molecular target: T1, PHA.L, lectin from Phaseolus vulgaris
Protocol: (§1) An array of lectins having affinity for N- and O-glycan structures was selected and used to coat 96 well microplates. Identical amounts of recombinant purified IL-7 preparations were incubated into lectin coated microplate wells. During this step, according to the affinity of a given lectin to the glycan decoration of IL-7, different amount of IL-7 were kept bound to the lectin. Revelation was conducted by incubating an IL-7 specific antibody coupled to Biotin.
(§2) Eight different lectins were used to characterize the IL-7 purified samples. Each lectin specifically recognizes sugar moieties.

[2] = molecular target: T2, UEA.I, lectin from Ulex europeus
Protocol: as §1, §2

[3] = molecular target: B1
Protocol: as §1, §2

B1: binds [1]; binds [2].

B2: binds [3].
